According to publication PMC10786891, “Massively parallel profiling of RNA-targeting CRISPR-Cas13d”:

T1: EsCas13d, nuclease-dead (Eubacterium siraeum, UniProt B0MS50, R295A;H300A;R849A;H854A)
T1 sequence: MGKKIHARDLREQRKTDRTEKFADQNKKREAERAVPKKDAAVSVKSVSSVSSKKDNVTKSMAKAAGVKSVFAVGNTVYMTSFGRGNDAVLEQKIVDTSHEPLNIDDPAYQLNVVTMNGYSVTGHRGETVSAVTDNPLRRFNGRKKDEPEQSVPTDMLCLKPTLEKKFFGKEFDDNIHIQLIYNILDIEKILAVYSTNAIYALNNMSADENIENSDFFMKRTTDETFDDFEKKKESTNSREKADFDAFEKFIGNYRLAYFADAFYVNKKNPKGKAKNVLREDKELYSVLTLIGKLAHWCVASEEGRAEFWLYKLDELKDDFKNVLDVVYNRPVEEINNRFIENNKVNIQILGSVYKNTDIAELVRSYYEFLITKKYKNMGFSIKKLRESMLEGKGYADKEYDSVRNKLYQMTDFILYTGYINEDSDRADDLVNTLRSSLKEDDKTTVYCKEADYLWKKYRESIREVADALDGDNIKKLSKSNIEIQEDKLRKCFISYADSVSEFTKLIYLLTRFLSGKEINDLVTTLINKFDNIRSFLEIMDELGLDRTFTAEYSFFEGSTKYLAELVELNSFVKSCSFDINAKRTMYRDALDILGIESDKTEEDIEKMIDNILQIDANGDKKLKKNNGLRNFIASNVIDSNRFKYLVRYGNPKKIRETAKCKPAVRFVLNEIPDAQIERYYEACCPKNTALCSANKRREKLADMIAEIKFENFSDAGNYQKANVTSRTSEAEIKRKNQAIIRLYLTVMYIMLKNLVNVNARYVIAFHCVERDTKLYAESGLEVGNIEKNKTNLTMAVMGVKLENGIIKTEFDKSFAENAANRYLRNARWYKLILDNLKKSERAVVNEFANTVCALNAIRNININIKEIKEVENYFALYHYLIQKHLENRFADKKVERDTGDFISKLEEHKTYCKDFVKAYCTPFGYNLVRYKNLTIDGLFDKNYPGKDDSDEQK


Biological target: T1, EsCas13d, nuclease-dead
Assay: crRNA (strand 1, pre-loaded); Mg2+; 40 mM Tris-HCl pH 7.5, 150 mM NaCl, 6 mM MgCl2, 1 mM DTT, 0.1% Tween-20, 0.2 mg/ml BSA; 25 C; 10 min per concentration, then washed
Conditions: tags: His6-TwinStrep-SUMO cleaved; N-terminal SNAP kept (SNAP-Surface 488); label: 3' end held by stalled T7 RNA polymerase

Binder	Kd [nM]
target 1 insU 3' of 13,insA 3' of 7 (mixed) RNA 1: CACCCGUGCAAAAAUGCAGGGGUCUAAAACUGAGCGGAUAACCUCUCUAUGG RNA 2: GGGAAUGGAUCCACAUCUACGAAUUCGUACCAUAGAGAGUGUUAUCACGCUCACCGAGAUCGGAAGAGCACACGU	13.6 ± 0.6
target 1 insC 3' of 14,insG 3' of 11 (mixed) RNA 1: CACCCGUGCAAAAAUGCAGGGGUCUAAAACUGAGCGGAUAACCUCUCUAUGG RNA 2: GGGAAUGGAUCCACAUCUACGAAUUCGUACCAUAGAGACGGUGUAUCCGCUCACCGAGAUCGGAAGAGCACACGU	57 ± 13
target 1 insC 3' of 20,insG 3' of 2 (mixed) RNA 1: CACCCGUGCAAAAAUGCAGGGGUCUAAAACUGAGCGGAUAACCUCUCUAUGG RNA 2: GGGAAUGGAUCCACAUCUACGAAUUCGUACCACUAGAGAGGUUAUCCGCUCGACCGAGAUCGGAAGAGCACACGU	11.6 ± 0.5
target 1 U3G,U10A (mixed) RNA 1: CACCCGUGCAAAAAUGCAGGGGUCUAAAACUGAGCGGAUAACCUCUCUAUGG RNA 2: GGGAAUGGAUCCACAUCUACGAAUUCGUACCAUAGAGAGGUAAUCCGCGCACCGAGAUCGGAAGAGCACACGU	17.2 ± 1.3
target 1 G5U,A9U (mixed) RNA 1: CACCCGUGCAAAAAUGCAGGGGUCUAAAACUGAGCGGAUAACCUCUCUAUGG RNA 2: GGGAAUGGAUCCACAUCUACGAAUUCGUACCAUAGAGAGGUUUUCCUCUCACCGAGAUCGGAAGAGCACACGU	97 ± 20
target 1 U3C,A9C (mixed) RNA 1: CACCCGUGCAAAAAUGCAGGGGUCUAAAACUGAGCGGAUAACCUCUCUAUGG RNA 2: GGGAAUGGAUCCACAUCUACGAAUUCGUACCAUAGAGAGGUUCUCCGCCCACCGAGAUCGGAAGAGCACACGU	28.4 ± 3
target 1 C6U,C22U (mixed) RNA 1: CACCCGUGCAAAAAUGCAGGGGUCUAAAACUGAGCGGAUAACCUCUCUAUGG RNA 2: GGGAAUGGAUCCACAUCUACGAAUUCGUAUCAUAGAGAGGUUAUCUGCUCACCGAGAUCGGAAGAGCACACGU	14.8 ± 1.9
target 1 U3G,A14C (mixed) RNA 1: CACCCGUGCAAAAAUGCAGGGGUCUAAAACUGAGCGGAUAACCUCUCUAUGG RNA 2: GGGAAUGGAUCCACAUCUACGAAUUCGUACCAUAGAGCGGUUAUCCGCGCACCGAGAUCGGAAGAGCACACGU	28.6 ± 1.8
target 1 insU 3' of 20,insG 3' of 6 (mixed) RNA 1: CACCCGUGCAAAAAUGCAGGGGUCUAAAACUGAGCGGAUAACCUCUCUAUGG RNA 2: GGGAAUGGAUCCACAUCUACGAAUUCGUACCAUUAGAGAGGUUAUCCGGCUCACCGAGAUCGGAAGAGCACACGU	16.3 ± 0.9
target 1 C6A,C7U (mixed) RNA 1: CACCCGUGCAAAAAUGCAGGGGUCUAAAACUGAGCGGAUAACCUCUCUAUGG RNA 2: GGGAAUGGAUCCACAUCUACGAAUUCGUACCAUAGAGAGGUUAUUAGCUCACCGAGAUCGGAAGAGCACACGU	7.1 ± 0.5
target 1 del3,del14 (mixed) RNA 1: CACCCGUGCAAAAAUGCAGGGGUCUAAAACUGAGCGGAUAACCUCUCUAUGG RNA 2: GGGAAUGGAUCCACAUCUACGAAUUCGUACCAUAGAGGGUUAUCCGCCACCGAGAUCGGAAGAGCACACGU	44 ± 4
target 1 C6U,U11G (mixed) RNA 1: CACCCGUGCAAAAAUGCAGGGGUCUAAAACUGAGCGGAUAACCUCUCUAUGG RNA 2: GGGAAUGGAUCCACAUCUACGAAUUCGUACCAUAGAGAGGGUAUCUGCUCACCGAGAUCGGAAGAGCACACGU	16.2 ± 0.9
target 1 C2A,A18G (mixed) RNA 1: CACCCGUGCAAAAAUGCAGGGGUCUAAAACUGAGCGGAUAACCUCUCUAUGG RNA 2: GGGAAUGGAUCCACAUCUACGAAUUCGUACCAUGGAGAGGUUAUCCGCUAACCGAGAUCGGAAGAGCACACGU	64 ± 18
target 1 insG 3' of 11,insA 3' of 6 (mixed) RNA 1: CACCCGUGCAAAAAUGCAGGGGUCUAAAACUGAGCGGAUAACCUCUCUAUGG RNA 2: GGGAAUGGAUCCACAUCUACGAAUUCGUACCAUAGAGAGGUGUAUCCAGCUCACCGAGAUCGGAAGAGCACACGU	94 ± 29
target 1 U10C,G12U (mixed) RNA 1: CACCCGUGCAAAAAUGCAGGGGUCUAAAACUGAGCGGAUAACCUCUCUAUGG RNA 2: GGGAAUGGAUCCACAUCUACGAAUUCGUACCAUAGAGAGUUCAUCCGCUCACCGAGAUCGGAAGAGCACACGU	24 ± 4
target 1 insG 3' of 21,insU 3' of 18 (mixed) RNA 1: CACCCGUGCAAAAAUGCAGGGGUCUAAAACUGAGCGGAUAACCUCUCUAUGG RNA 2: GGGAAUGGAUCCACAUCUACGAAUUCGUACCGAUAUGAGAGGUUAUCCGCUCACCGAGAUCGGAAGAGCACACGU	77 ± 22
target 1 insU 3' of 21,insG 3' of 10 (mixed) RNA 1: CACCCGUGCAAAAAUGCAGGGGUCUAAAACUGAGCGGAUAACCUCUCUAUGG RNA 2: GGGAAUGGAUCCACAUCUACGAAUUCGUACCUAUAGAGAGGUUGAUCCGCUCACCGAGAUCGGAAGAGCACACGU	82 ± 23
target 1 C2A,G5C (mixed) RNA 1: CACCCGUGCAAAAAUGCAGGGGUCUAAAACUGAGCGGAUAACCUCUCUAUGG RNA 2: GGGAAUGGAUCCACAUCUACGAAUUCGUACCAUAGAGAGGUUAUCCCCUAACCGAGAUCGGAAGAGCACACGU	6.52 ± 0.32
target 1 G15A,A16C (mixed) RNA 1: CACCCGUGCAAAAAUGCAGGGGUCUAAAACUGAGCGGAUAACCUCUCUAUGG RNA 2: GGGAAUGGAUCCACAUCUACGAAUUCGUACCAUAGCAAGGUUAUCCGCUCACCGAGAUCGGAAGAGCACACGU	30.5 ± 2.7
target 1 insG 3' of 18,insG 3' of 9 (mixed) RNA 1: CACCCGUGCAAAAAUGCAGGGGUCUAAAACUGAGCGGAUAACCUCUCUAUGG RNA 2: GGGAAUGGAUCCACAUCUACGAAUUCGUACCAUAGGAGAGGUUAGUCCGCUCACCGAGAUCGGAAGAGCACACGU	49 ± 8
target 1 insU 3' of 14,insG 3' of 11 (mixed) RNA 1: CACCCGUGCAAAAAUGCAGGGGUCUAAAACUGAGCGGAUAACCUCUCUAUGG RNA 2: GGGAAUGGAUCCACAUCUACGAAUUCGUACCAUAGAGAUGGUGUAUCCGCUCACCGAGAUCGGAAGAGCACACGU	80 ± 40
target 1 G12A,A20U (mixed) RNA 1: CACCCGUGCAAAAAUGCAGGGGUCUAAAACUGAGCGGAUAACCUCUCUAUGG RNA 2: GGGAAUGGAUCCACAUCUACGAAUUCGUACCUUAGAGAGAUUAUCCGCUCACCGAGAUCGGAAGAGCACACGU	15.7 ± 0.9
target 1 insC 3' of 22,insA 3' of 19 (mixed) RNA 1: CACCCGUGCAAAAAUGCAGGGGUCUAAAACUGAGCGGAUAACCUCUCUAUGG RNA 2: GGGAAUGGAUCCACAUCUACGAAUUCGUACCCAUAAGAGAGGUUAUCCGCUCACCGAGAUCGGAAGAGCACACGU	30 ± 9
target 1 insG 3' of 11,insG 3' of 2 (mixed) RNA 1: CACCCGUGCAAAAAUGCAGGGGUCUAAAACUGAGCGGAUAACCUCUCUAUGG RNA 2: GGGAAUGGAUCCACAUCUACGAAUUCGUACCAUAGAGAGGUGUAUCCGCUCGACCGAGAUCGGAAGAGCACACGU	57 ± 8
target 1 insC 3' of 19,insC 3' of 9 (mixed) RNA 1: CACCCGUGCAAAAAUGCAGGGGUCUAAAACUGAGCGGAUAACCUCUCUAUGG RNA 2: GGGAAUGGAUCCACAUCUACGAAUUCGUACCAUCAGAGAGGUUACUCCGCUCACCGAGAUCGGAAGAGCACACGU	56 ± 11
target 1 insU 3' of 22,insC 3' of 5 (mixed) RNA 1: CACCCGUGCAAAAAUGCAGGGGUCUAAAACUGAGCGGAUAACCUCUCUAUGG RNA 2: GGGAAUGGAUCCACAUCUACGAAUUCGUACUCAUAGAGAGGUUAUCCGCCUCACCGAGAUCGGAAGAGCACACGU	100 ± 50
target 1 C7G,G12C (mixed) RNA 1: CACCCGUGCAAAAAUGCAGGGGUCUAAAACUGAGCGGAUAACCUCUCUAUGG RNA 2: GGGAAUGGAUCCACAUCUACGAAUUCGUACCAUAGAGAGCUUAUGCGCUCACCGAGAUCGGAAGAGCACACGU	23.6 ± 1.4
target 1 U10A,C21A (mixed) RNA 1: CACCCGUGCAAAAAUGCAGGGGUCUAAAACUGAGCGGAUAACCUCUCUAUGG RNA 2: GGGAAUGGAUCCACAUCUACGAAUUCGUACAAUAGAGAGGUAAUCCGCUCACCGAGAUCGGAAGAGCACACGU	33 ± 5
